# B1: Akkermansia muciniphila-derived threonyl-tRNA synthetase (TARS) (protein)
# chain: MSEHKERKTLEERQQMSDLERLRHSCAHVLATAICRLWPDAQLAGGPAVDNGFYYDVELDHRISTEDFERIEEEMKKVVKENQVFQKEVISRADAMKMAESGELGALGPRSEPSRFKIDLLNDIPEDEEISLYRNGDFTDLCAGPHVGRTGNCKAFKIMSVASAFYKGDKNRPMLQRIYGTCFPNRTQLDEHLERLEEARRRDHRKLGRELGLFCIDESVGQGLILWKPKGALIRRSLQDFITEELDKLGYSQVYTPNIGKLDLYRTSGHFPYYQESQYAPIPERDAMEKLSQEGASCAELFNGLATGTIEGYMLKPMNCPHHIKIYANDAHSYRDLPVRLAEFGTVYRWEQSGELGGMTRVRGFTQDDAHIFCTPDQLAGEIRQCLGIVKTIFGTLGMTDYRVRLSMRDPESDKYVGSPENWDKAEQALREAAEWLGADYSEEAGEAAFYGPKIDFIVRDAIGREWQLGTVQVDYNLPERFDLHYTGADNKPHRPVMVHRAPFGSMERFTGLLIEHFEGKFPTWLSPEQVRVLPISDKVTDVAAAHRTALAARGVRVTVDETPDKIGAKIRNARLDRVPYMLVLGQREAEDGTVSVRHRDKGDLGAMPFEQFADLVAREIAERHISPVI
# modifications: Akkermansia muciniphila TARS
# What was measured:
# TLR4 = target: T1, TLR4 (Homo sapiens, UniProt O00206); test: Pull-down assay with TLR4 in HEK 293T cells; assay type: binding; conditions: Strep-AmTARS and TLR4-FLAG
# T1 construct: FLAG (C); expressed in transfected cells; host or cells: HEK 293T
# T1 sequence (O00206 24-839): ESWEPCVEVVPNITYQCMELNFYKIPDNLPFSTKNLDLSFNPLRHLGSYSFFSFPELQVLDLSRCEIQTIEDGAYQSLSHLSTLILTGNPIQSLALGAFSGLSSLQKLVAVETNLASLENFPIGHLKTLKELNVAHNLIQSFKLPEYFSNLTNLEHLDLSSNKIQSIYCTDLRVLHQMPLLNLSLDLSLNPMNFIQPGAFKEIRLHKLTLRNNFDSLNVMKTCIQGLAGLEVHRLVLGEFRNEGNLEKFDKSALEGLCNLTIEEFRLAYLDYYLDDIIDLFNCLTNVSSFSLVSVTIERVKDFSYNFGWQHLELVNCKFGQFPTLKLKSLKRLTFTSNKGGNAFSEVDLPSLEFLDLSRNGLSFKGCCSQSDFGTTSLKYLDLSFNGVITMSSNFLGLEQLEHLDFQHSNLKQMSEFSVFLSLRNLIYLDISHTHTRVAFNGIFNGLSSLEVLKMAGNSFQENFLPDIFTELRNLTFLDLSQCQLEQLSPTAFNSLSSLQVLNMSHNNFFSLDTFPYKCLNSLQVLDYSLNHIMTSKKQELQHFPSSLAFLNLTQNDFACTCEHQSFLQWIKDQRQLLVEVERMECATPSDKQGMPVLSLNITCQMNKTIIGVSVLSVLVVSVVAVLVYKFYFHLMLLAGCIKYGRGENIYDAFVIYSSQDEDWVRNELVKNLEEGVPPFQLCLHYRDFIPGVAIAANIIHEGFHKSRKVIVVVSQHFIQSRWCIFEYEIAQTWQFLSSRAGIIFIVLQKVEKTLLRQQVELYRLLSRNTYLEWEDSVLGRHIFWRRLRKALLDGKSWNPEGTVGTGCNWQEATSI
# Source text: (A) AmTARS-interacting candidates identified from membrane protein interactome analysis. Potential interactors (receptors) involved in innate immunity are indicated in red. (B-D) Pull-down of Strep-AmTARS co-expressed with NLRX1-FLAG (B), CD163-FLAG (C), and TLR4-FLAG (D) in HEK 293T cells. Data shown are representative of three independent experiments, each with similar results.
# Then, Strep-tagged AmTARS, AmTARS having deletions of two functional site (AmTARSΔ1Δ2), and FLAG-tagged TLR2 were transduced into human-derived HEK 293T cells through PEI, and thereafter, the cells were lysed using a lysis buffer containing 50 mM Tris-HCl (pH 7.5), 100 mM NaCl, 1% NP-40, 1 mM EDTA, 0.25% Na-deoxycholate, and a protease inhibitor cocktail. The cell lysates each were incubated with Strep Tactin beads and washed with a buffer containing 137 mM NaCl, 2.7 mM KCl, 10 mM Na2HPO4, 1.8 mM KH2PO4, and 1 mM EDTA, and proteins attached to the beads were eluted and analyzed by immunoblotting.
# BMDMs = test: Global gene expression profiling (RNA sequencing) of BMDMs; assay type: cell-based, mouse; conditions: GSEA (Enrichr)
# Method: (A-E) Global gene expression analysis. Total mRNA from BMDMs treated with either AmTARS (0.5 μM) or Pam3 (10 ng ml-1) for 1 or 3 h was isolated and analyzed by RNA sequencing (A). Principle components analysis (PCA) of the gene expression profiles for each sample (B). Hierarchical clustering of gene expression profiles from each sample identified cluster 3 and 4 (C). Gene set enrichment analysis (GSEA) of clusters 3 and 4 with respect to terms related to inflammation (D). […] (F) Overview of the experimental procedures for zebrafish. The yolk of Tg (NFκB:EGFP) transgenic zebrafish larvae (3 dpf) was injected with PBS or AmTARS. Injected larvae were treated at 3 and 5 dpf with 0.5% DSS for 24 h, with a washing period with fresh water for 24 h in between. Sample collection and analysis of Tg (NFκB:EGFP)-based EGFP intensity were conducted at 6 dpf. (G) Representative confocal images showing NF-κB signaling in the mid-distal intestines of PBS- or AmTARS-injected larvae with or without DSS treatment. White dashed lines denote the boundaries of the intestines (based on merged DIC bright field images). (H) Bar graph comparing the fluorescence intensity of the mid-distal intestines of PBS- or AmTARS-injected larvae treated (or not) with DSS (n=32 per PBS group and n=35 per DSS group). (I) Schematic model of the role of AmTARS in maintaining immune homeostasis via TLR2-mediated anti-inflammatory signaling pathways. Data shown in (A-C) are representative and repeated twice. Data shown in (H) are representative of three independent experiments, each similar results (mean±SEM). P-values were calculated by unpaired and two-tailed Student's t-test.
# We next performed global gene expression profiling of BMDMs treated with AmTARS or Pam3 for 1 or 3 h (FIG. 32A). […] Subsets of genes showing different expression patterns between AmTARS and Pam3 were classified into six clusters by hierarchical clustering analysis (FIGS. 33A and 33B). The gene expression pattern at 3 h was particularly different for clusters 3 and 4 (FIGS. 32C, 33A, and 33B). […]
# BMDMs from TLR2-KO mouse = test: IL-10 production in BMDMs from TLR2 knock-out mice; assay type: cell-based
# Source text: The TLR2-dependent immune function of AmTARS was further corroborated using TLR2 knock-out (KO) mice. […] However, IL-10 production by […] (U1/U2) was abolished in BMDMs from TLR2-KO mice, providing further evidence that AmTARS regulates host immune cells via its unique regions in a TLR2-dependent manner (FIG. 28D).
# [1] = Aminoacylation reaction (malachite green phosphate assay); assay type: biochemical; conditions: L-threonine, ATP, 30 min, free Pi at 620 nm
# Method: TARS is an […] involved in protein synthesis, and the domain and site involved in its function are well known. The constructed deletion mutants were confirmed to have deletions of parts irrelevant to the function, but the aminoacylation reaction experiment was conducted to determine whether the deletion mutants performed the intrinsic functions thereof appropriately.
# Specifically, a 2× reaction solution (100 mM Tris-HCl (pH 7.5), 20 mM MgCl2, 200 mM NaCl, 200 mM KCl, 2 mM DTT, 500 μM ATP, and 5 mM L-threonine) was prepared, and 25 μL of a reaction solution, 20 μL of distilled water, and 5 μL of protein were added to make a final 50 μL volume, followed by incubation for 30 min. Thereafter, a reaction was conducted using a malachite green phosphate assay kit (Bioassay Systems) for 30 min, and the free monophosphate group (Pi) was measured at a wavelength of 620 nm.
# human macrophages (THP1) = test: ELISA of immune cytokine secretion in LPS-treated THP1 (inflammatory environment); assay type: cell-based; conditions: THP1, LPS-induced inflammation, 0.1, 0.2, 0.5 μM, 24 h
# Method: To determine whether AmTARS affects immune cytokine secretion when cellular inflammation was induced, mouse bone marrow-derived macrophages BMDMs as mouse-derived immune cells and human macrophages THP1 as human-derived immune cells were cultured by way of the same method as in Example 2.
# Specifically, the cultured BMDMs and THP1 were treated with lipopolysaccharide (LPS) to induce an inflammatory response and were simultaneously treated with AmTARS at 0.1 μM, 0.2 μM, and 0.5 μM for 24 h to obtain cell cultures. The obtained cell cultures were analyzed for immune cytokine secretion by way of the same method as in Example 2.
# macrophages (F4/80+) = test: Identification of cells targeted by injected AmTARS (flow cytometry of PECs, colon immunofluorescence); assay type: in vivo, mouse; conditions: Mac2 immunofluorescence, His-tagged AmTARS 0.2 mg kg-1, 1 day
# Method: To identify the cells targeted by AmTARS, mice with injected i.p. with fluorescently labeled AmTARS, and fluorescence-positive cells in peritoneal exudate cells (PECs), were analyzed by flow cytometry. […] Next, we used a Mac-2 immunofluorescence antibody to test whether i.p.-injected AmTARS targets intestinal macrophages. Intense expression of Mac2 was detected in colonic epithelium, as well as in macrophages located in the lamina propria.
molecule,measurement,setting,value
B1,interaction with TLR4 (pull-down),TLR4,no interaction
same,transcription factors associated with up-regulated genes,BMDMs,up-regulation of the anti-inflammation-related transcription factor CREB
same,IL-10 production,BMDMs from TLR2-KO mouse,did not induce IL-10 production
same,aminoacylation reaction / enzymatic activity,[1],an aminoacylation reaction was shown
same,secretion of IL-6,human macrophages (THP1),reduced in a dose-dependent manner
same,secretion of IL-10,human macrophages (THP1),increased in a dose-dependent manner
same,secretion of TNF-α,human macrophages (THP1),reduced in a dose-dependent manner
same,co-localization of administered AmTARS (His) in the colon,macrophages (F4/80+),co-localized mainly with macrophages in the lamina propria

# Reference: US12636342B2, “TARS derived from Akkermansia muciniphila or fragment thereof, and use thereof” (KOREA RESEARCH INSTITUTE OF BIOSCIENCE AND BIOTECHNOLOGY, priority 2020, dated 2026)
